Laboratory results from patent US20110044994A1.
Numbering of substitutions follows the chain as printed.

B1: 1503_H05 (PG16) (antibody, V domains shown)
VH: QEKLVESGGGVVQPGGSLRLSCLASGFTFHKYGMHWVRQAPGKGLEWVALISDDGMRKYHSDSMWGRVTISRDNSKNTLYLQFSSLKVEDTAMFFCAREAGGPIWHDDVKYYDFNDGYYNYHYMDVWGKGTIVTVSS
VL: QSALTQPASVSGSPGQTITISCNGTRSDVGGFDSVSWYQQSPGKAPKVMVFDVSHRPSGISNRFSGSKSGNTASLTISGLHIEDEGDYFCSSLTDRSHRIFGGGTKVTVLG
B2: 1456_A12 (PG16) (antibody, V domains shown)
VH: B1 VH with Q1H, K3Q, S7A, K87R, I132K
VL: B1 VL with R26S, S27R, I60M, V107L
B3: 1489_I13 (PG16) (antibody, V domains shown)
VH: B1 VH with K3Q, V5L, D62N, I132T
VL: B1 VL with R26S
B4: 1469_M23 (PG16) (antibody, V domains shown)
VH: B1 VH with I132T
VL: B1 VL with K44R, V107L

molecular target: JR-CSF (Y318A) pseudovirus Env (HIV-1) (UniProt P20871); experiment: cell-based or functional assay

Binder	IC50 (ug/ml), pseudovirus neutralization, TZM-bl assay
B1	> 1 µg/mL
B2	> 1 µg/mL
B3	> 1 µg/mL
B4	> 1 µg/mL

molecular target: JR-CSF pseudovirus (HIV-1 Env on the virions) (HIV-1) (UniProt P20871); experiment: cell-based or functional assay

Binder	IC50 (ug/ml), pseudovirus neutralization, TZM-bl assay
B1	0.001 µg/mL
B2	0.001 µg/mL
B3	0.002 µg/mL
B4	0.002 µg/mL

molecular target: ADA pseudovirus Env (HIV-1); experiment: cell-based or functional assay

Binder	IC50 (ug/ml), pseudovirus neutralization, TZM-bl assay
B1	0.003 µg/mL
B2	0.005 µg/mL
B3	0.008 µg/mL
B4	0.005 µg/mL

molecular target: 92RW020 pseudovirus Env (HIV-1); experiment: cell-based or functional assay

Binder	IC50 (ug/ml), pseudovirus neutralization, TZM-bl assay
B1	0.02 µg/mL
B2	0.05 µg/mL
B3	0.03 µg/mL
B4	0.05 µg/mL

molecular target: JR-CSF (I309A) pseudovirus Env (HIV-1) (UniProt P20871); experiment: cell-based or functional assay

Binder	IC50 (ug/ml), pseudovirus neutralization, TZM-bl assay
B1	> 1 µg/mL
B2	> 1 µg/mL
B3	> 1 µg/mL
B4	> 1 µg/mL

molecular target: JR-FL (E168K) pseudovirus Env (HIV-1); experiment: cell-based or functional assay

Binder	IC50 (ug/ml), pseudovirus neutralization, TZM-bl assay
B1	0.002 µg/mL
B2	0.003 µg/mL
B3	0.005 µg/mL
B4	0.005 µg/mL
